B1: TPR t1 (parent)
chain: GACCAAUCUGCCCUCAGAGCUCGAGAACAUCUUCGGAUGCAGAGGAGGCAGGCUUCGGUGGCGCGAUAGCGCCAACGUCCUCAACCUCCAAUGCAUCCCACCACAUGAUGAUGCCUGAAGAGCCUUGGUUUUUUG

Variants of: B1
Test: polymerase ribozyme fitness, log enrichment relative to wild type (log ratio); higher = more active; in vitro selection for triplet polymerase activity
Outline: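 One round of in vitro selection, in triplicate, was applied to PCR-built, transcribed mutant libraries of each subunit of a heterodimeric triplet polymerase ribozyme. The steps were annealing with a biotinylated primer, partner subunit and triplets, incubation frozen at −7 °C, gel excision of extended constructs, streptavidin-bead capture and RT-PCR. Fitness is the logarithm, base 2, of genotype enrichment over wild-type enrichment from inverse-variance-weighted replicate averages of Illumina-sequenced inputs and outputs, keeping genotypes with ≥10 input reads and ≥1 read per output.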

Variant	polymerase ribozyme fitness (log ratio)
GACCAAUCUGCCCUCAGAGCUCGAGAACAUCUUCGGAUACAGAGGAGGCAGGCUUCGGUGGCGCGAUAGCGCCAACGUCCUCAACCUCCAAUGCAUCCCACCACAUGAUAAUGCCUGAAGAGCCUUGGUUUUUUG [G39A G110A]	-1.31
GACCAAUCUGCCCUCAGAGCUCGAGAACAUCUUCGGAUCCAGAGGAGGCAGGCUUCGGUGGCGCGAUAACGCCAACGUCCUCAACCUCCAAUGCAUCCCACCACAUGAUGAUGCUUGAAAAGCCUUGGUUUUUUG [G39C G69A C115U G120A]	-6.08
GACCAAUCUGCCCUCAGAGCUCGAGAACAUCUUCGGAUUCAGAGGAGGCAGGCUUCGGUGGCGCGAUAGCGCCAACGUCCUCAACCUCCAAUGCUUCCCACCACAUGAUGAUGCCUGAAGAGCCUUGGUUUUUUG [G39U A95U]	-1.27
GACCAAUCUGCCCUCAGAGCUCGAGAACAUCUUCGGAUCCAGAGGAGGCAGGCUUCGGUGGCGCGAUAGUGCCAACGUCCUCAACCUCCAAUGCAUCCCACCACAUGAUGACGCCUGAAGAGCCUUGGUUUUUUG [G39C C70U U112C]	1.16
GACCAAUCUGCCCUCAGAGCUCGAGAACAUCUUCGGAUCCAGAGGAGGCAGGCUUCGGUGGCGCGAUACCGCCAACGUCCUCAACCUCCAAUGCAUCCCACCACAUGAUGAUGCCUGAAGAGCCUUGGUUUUUUG [G39C G69C]	-2.22
GACCAAUCUGCCCUCAGAGCUCGAGAACAUCUUCGGAUACAGAGGAGGCAGGCUUCGGUGGCGCGAUAUCGCCAACGUCCUCAACCUCCAAUGCAACCCACCAAAUGAUGAUACCUGAAGAGCCUCGGUUUUUUG [G39A G69U U96A C104A G113A U126C]	-3.63
GACCAAUCUGCCCUCAGAGCUCGAGAACAUCUUCGGAUACAGAGGAGGCAGGCUUCGGUGGCGCGAUAGCGCCAACGUCCUCAACCUCCAAUACAUCCCACCACAUGAUGAUGCCUGAAGAGCCUUGGUUUUUUG [G39A G93A]	-2.02
GACCAAUCUGCCCUCAGAGCUCGAGAACAUCUUCGGAUCCAGAGGAGGCAGGCUUCGGUGGCCCGAUAGCGCCAACGUCCUCAACCUCCAAUGCAUCCCACCACAUGAUGAUGCCUGAAGAGCCUUGGUUUUUUG [G39C G63C]	-1.54
GACCAAUCUGCCCUCAGAGCUCGAGAACAUCUUCGGAUUCAGAGGAGGCAGGCUUCGGUGGCGCGAUAGCGCCAACGUCCUCAACCUCCAAUGCAUCCCACCACCUGAUGAUGCCUGAAGAGCCUUGGUUUUUUG [G39U A105C]	-3.64
GACCAAUCUGCCCUCAGAGCUCGAGAACAUCUUCGGAUACAGAGGAGGCAGGCUUCGGUGGCGCGAUAGCGCCAACGUCCUCAACCUCCAAUGCAUCCCACCACAUGAUGAAGCCUGAAGAGCCUUGGUUUUUUG [G39A U112A]	0.854
GACCAAUCUGCCCUCAGAGCUCGAGAACAUCUUCGGAUACAGAGGAGGCAGGCUUCGGUGGCGCGAUAGCGCCAACGUCCUCAACCUCCAAUGCAUCCCACCACAUGAUGAUCCCUGAAGAGCCUUGGUUUUUUG [G39A G113C]	-2.69
GACCAAUCUGCCCUCAGAGCUCGAGAACAUCUUCGGAUCCAGAGGAGGGAGGCUUCGGUGGCGCGAUAGCGCCAACUUCCUCAACCUCCAAUGAAUCGCACUACAUGAUGAUGCCUGAAGAGACUUGGUUAUUUG [G39C C49G G77U C94A C98G C102U C123A U131A]	-5.44
GACCAAUCUGCCCUCAGAGCUCGAGAACAUCUUCGGAUUCUGAGGAGGCAGGCUUCGGUGGCGCGAUAGCGCCAACGUCCUCAACCUCCAAUGCAUCCCACCACAUGAUGAUGCCUGAAGAGCCUUGGUUUUUUG [G39U A41U]	-2.97
GACCAAUCUGCCCUCAGAGCUCGAGAACAUCUUCGGAUUCUGAGGAGGCAGGCUUCGGUGGCGCGAUAGCGCCAACGUCCUCAACCUCCAAUGCAUCCCACCAUAUGAUGAUGCCUGAAGAGACUUGGUUUUUUG [G39U A41U C104U C123A]	-2.95
GACCAAUCUGCCCUCAGAGCUCGAGAACAUCUUCGGAUCCAGAGGAGGCAGGCUUGGGUGGCGCGAUAGCGCCAACGUCCUCAACCUCCAAUGCAUCCCACCACAUGAUGAUGCCUGAAGAGCCUUGGUUUUUUG [G39C C56G]	-1.53
GACCAAUCUGCCCUCAGAGCUCGAGAACAUCUUCGGAUCCAGAGGAGGCAGGCUUCGGUGCCGCGAUAGCGCCAACGUCCUCGACCUCCAAUGCAUCCCACCACAUGAUGAUGCCUGAAGAGCCUUGGUUUUUUG [G39C G61C A83G]	-3.89
GACCAAUCUGCCCUCAGAGCUCGAGAACAUCUUCGGAUCCAGAGGAGGCAGGCAUCGGUGGCGCGAUAGCGCCAACGUCCUCAACCUCCAAUGCAUCCCACCACAUGAUGAUGCCUGAAGAGCCUUGGUUUUUUG [G39C U54A]	-0.125
GACCAAUCUGCCCUCAGAGCUCGAGAACAUCUUCGGAUCCAGAGGAGGCAGGCUUCGGUGGCGCGAUAGCGCCAACGUCCUCAACCUCCAAUGCAUCCCACCACAUGAUAAUGCCUGAAGAGCCUUGGUUUUUUG [G39C G110A]	-1.82
GACCAAUCUGCCCUCAGAGCUCGAGAACAUCUUCGGAUCCUGAGGAGGCAGGCUUCGGUAGCGCGAUAGCGCCAACGUCCUCAACCUCCAAUGCAUCCCACCACAUGAUGAUGCCUGAAGAGCCUUGGUUUUUUG [G39C A41U G60A]	-2.76
GACCAAUCUGCCCUCAGAGCUCGAGAACAUCUUCGGAUCCAGAGGAGGCAGGCUUCGGUGGCGCGAUAGCGCCAACGUCCUCAACCUCCAAUGCAUCCCACCACAUGAUGAUGUCUGAAGAGCCUUGGUUUUUUG [G39C C114U]	-1.75
GACCAAUCUGCCCUCAGAGCUCGAGAACAUCUUCGGAUCCAUAGGACGCAGGCUUCGGUGGCGCGAUAGCGCCAACGUCCUCAACCUCCAAUGCAUCCCACCACAUGAUGAUGCCUGAAGAGCCUUGGUUUUUUG [G39C G42U G47C]	-3.36

Variant	polymerase ribozyme fitness (log ratio)
GACCAAUCUGCCCUCAGAGCUCGAGAACAUCUUCGGAUUCAGAGGGGGCAGGCUUCGGUGGCGCGAUAGCGCCAACGUCCUCAACCUCCAAUGCAUCCCACCACAUGAUGAUGCGUGAAGAGCCUUGGUUUUUUG [G39U A46G C115G]	-3.39
GACCAAUCUGCCCUCAGAGCUCGAGAACAUCUUCGGAUACAGAGGAGGCAGGCAUCGGUGGCGCGAUAGCGCCAACGUCCUCUACCUCCAAGGCAUCCCACCACAUGAUGAUGCCUGAAGAGCCUUGGUUUUUUG [G39A U54A A83U U92G]	-4.73
GACCAAUCUGCCCUCAGAGCUCGAGAACAUCUUCGGAUCCAGAGGAGGCAGGCAUCGUUGGCGCGAUAGCGCCAACGUCCUCAACCUCCAAUGCAUCCCACCACAUGAUGAUGACUGAAGAGCCUUGGUUUUUUG [G39C U54A G58U C114A]	-2.27
GACCAAUCUGCCCUCAGAGCUCGAGAACAUCUUCGGAUCCAGAGGAGUCAGGCUUCCGUGGCGCGAUAGCGCCAACGUCCUCAACCUCCAAUGCAUCCCACCACAUGAUGAUGCCUGAAGAGCCUUGGUUUUUUG [G39C G48U G57C]	-1.92
GACCAAUCUGCCCUCAGAGCUCGAGAACAUCUUCGGAUACAGAGGAGGCAGGCUACGGUGGCGCGAUAGCGCCAACCUCCUCACCCUCCAAUGCAUCCCACCACAUGAUGAUGCCUGAAGAGCCUUGGUUUUUUG [G39A U55A G77C A84C]	-2.23
GACCAAUCUGCCCUCAGAGCUCGAGAACAUCUUCGGAUUCAGAGGGGGCAGGCUUCGGUGGCACGAUAGCGCCAACGUCCUCAACCUCCAAUGCAUCCCACCACAUGAUGAUGCGUGAAGAGCCUUGGUUUUUUG [G39U A46G G63A C115G]	-1.83
GACCAAUCUGCCCUCAGAGCUCGAGAACAUCUUCGGAUUCUGAGGAGGCAGGCUUCGGUGGCGCGAUAGCGCCAACGUCCUCAACCUCCAAUGCCUCCCACCACAUGAUGAUGCCUUAAGAGCCUUGGUUUUUUG [G39U A41U A95C G117U]	-4.57
GACCAAUCUGCCCUCAGAGCUCGAGAACAUCUUCGGAUACAGAGGAGGCAGGCUUCGGUGGCGCGAUACCGCCAACGUCCUCAACCUCCAAUGCAUCCCACCACAUGAUGAUGCCUGAAGAGCUUUGGUUUUUUG [G39A G69C C124U]	-0.485
GACCAAUCUGCCCUCAGAGCUCGAGAACAUCUUCGGAUCCAGAGGAGGCAGGCUUCGGUGGCGCGCUAGCGCCAACGUCCUCAACCUCCAAUGCAUCCCACCACAUGAUGAUGCCUGAAGAGCCUUGGUUUUUUG [G39C A66C]	-1.94
GACCAAUCUGCCCUCAGAGCUCGAGAACAUCUUCGGAUCCAGAGGAGGCAGACUUCGGUGGCGCGAUAGCGCCAACGUCCUCAACCUCCAAUGCAUCCCACCACAUGAUGAUGCCUGAAGAGCCUUGGUUUUUUG [G39C G52A]	-1.32
GACCAAUCUGCCCUCAGAGCUCGAGAACAUCUUCGGAUACAGAGGAGGCAGGCUUCGGUGGCGCGAUAGCGCCAACGUCCUCAACCUCCAAUGCAUCCCACCACAUGAUGAUCCCUGAAGAGCGUUGGUUUUUUG [G39A G113C C124G]	-1.58
GACCAAUCUGCCCUCAGAGCUCGAGAACAUCUUCGGAUUCAGAGGAGGCAGGCUUCGGUGGCGCGAUAGCGCCAACGUCCUCACCCUCCAAUGCAUCCCACCACAUGAUGAUGCCUGAAGAAAAUUGGUUUUUUG [G39U A84C G122A C123A C124A]	0.979
GACCAAUCUGCCCUCAGAGCUCGAGAACAUCUUCGGAUCCAGAGGAGGCAGGCUUCGGUGGCGCGAUAGCGCCAACGUCCUCAACCUCCAAUGCAUCCCACCACAUGAUGAUGCCUGAAUAGCCUUGGUUUUUUG [G39C G120U]	-1.35
GACCAAUCUGCCCUCAGAGCUCGAGAACAUCUUCGGAUCCAGAGGAGGCAGGCUUCGGUGGCGCGAUAGCGCCAACGUCCUCAACCUCCAAUGCAUCCCACCACAUGAUGAUGCCUGAAGAGCCUUCGUUUUUUG [G39C G127C]	-1.46
GACCAAUCUGCCCUCAGAGCUCGAGAACAUCUUCGGAUCCAGAGGAGGCAGGCUUCGGUGGCGCGAUAGCGCCAACGUCCUCAACCUCUAAUGCAUCCCACCACAUGAUGAUGCGUGAAGAGACUUGGUUUUUUG [G39C C89U C115G C123A]	-4.39
GACCAAUCUGCCCUCAGAGCUCGAGAACAUCUUCGGAUCCAGAGGAGGCUGGCUUCGGUGACGCGAUAGCGCCAACGUCCUCAACCUCCAAUGCAUCCCACCACAUGAUGAUGCCUGAAGAGCCUUGGUUUUUUG [G39C A50U G61A]	-1.4
GACCAAUCUGCCCUCAGAGCUCGAGAACAUCUUCGGAUACAGAGGAGGCAGGCUUCGGUGGCGCGAUAGCUCCAACGUCCUCAUCCUCCAAUGCAUCCCACCACAUGAUGAUGCCUGAAGAGCCUUGGUUUUUUG [G39A G71U A84U]	-0.797
GACCAAUCUGCCCUCAGAGCUCGAGAACAUCUUCGGAUCCAGAGGAGGCAGGCUUCGGUGGCGCGAUAGCCCCAACGUCCUCAACUUCCAAUGCAUCCCACCACAUGAUGAUGCCUGAAGAGCCUUGGUUUUUUG [G39C G71C C86U]	-2.13
GACCAAUCUGCCCUCAGAGCUCGAGAACAUCUUCGGAUCCAGAGGAGUCAGGCUUCGGUGGCGCGAUAGCGCAAACGUCCUCAACCUCCAAUGCAUCCCUCCACAUGAUGAUGCCUGAAGAGCCUUGGUUUUUUG [G39C G48U C73A A100U]	-2.09
GACCAAUCUGCCCUCAGAGCUCGAGAACAUCUUCGGAUUCAGAGGAGGCAGGCUUCGGUGGCGCGAUAGCGCCAACGUCCUCAUCCUCCAAUGCAUCCCACCACAUGAUGAUGCCUGAAGAGCCUUGGUUUUUUG [G39U A84U]	-1.03
GACCAAUCUGCCCUCAGAGCUCGAGAACAUCUUCGGAUACAGAGGAGGCAGGCUUCGGUGGCGCGAUAGCACCAACGUCCUUAACCCCCAAUGCAUCCCACCACAUGAUGAUGCCUGAAGAGCCUUGGUUUCUUG [G39A G71A C82U U87C U132C]	-1.47
